Measured values: the Immune Epitope Database (IEDB)

Experiments:
[1] = target: HLA-A*01:01; assay: IEDB peptide-MHC binding, purified MHC/competitive/radioactivity; filed as Kd, often an IC50 or EC50 that approximates it; ≥ and ≤ were set here for values at or beyond the usual limits of such assays
[2] = target: HLA-A*29:02; assay: as above
[3] = target: HLA-A*24:02; assay: as above
[4] = target: HLA-A*30:02; assay: as above
[5] = target: HLA-A*23:01; assay: as above
[6] = target: HLA-A*26:01; assay: as above
[7] = target: HLA-B*40:01; assay: IEDB peptide-MHC binding, purified MHC/direct/fluorescence; filed as Kd, often an IC50 or EC50 that approximates it; ≥ and ≤ were set here for values at or beyond the usual limits of such assays; details: source organism: SARS-CoV1
[8] = target: HLA-A*32:01; assay: IEDB peptide-MHC binding, purified MHC/competitive/radioactivity; filed as Kd, often an IC50 or EC50 that approximates it; ≥ and ≤ were set here for values at or beyond the usual limits of such assays
[9] = target: HLA-B*58:01; assay: IEDB peptide-MHC binding, purified MHC/direct/fluorescence; filed as Kd, often an IC50 or EC50 that approximates it; ≥ and ≤ were set here for values at or beyond the usual limits of such assays; details: source organism: Bacillus mycoides
[10] = target: HLA-B*57:01; assay: as above; details: source organism: Bacillus mycoides
[11] = target: HLA-B*44:02; assay: IEDB peptide-MHC binding, purified MHC/competitive/radioactivity; filed as Kd, often an IC50 or EC50 that approximates it; ≥ and ≤ were set here for values at or beyond the usual limits of such assays
[12] = target: HLA-B*44:03; assay: as above
[13] = target: HLA-B*15:01; assay: IEDB peptide-MHC binding, purified MHC/direct/fluorescence; filed as Kd, often an IC50 or EC50 that approximates it; ≥ and ≤ were set here for values at or beyond the usual limits of such assays; details: source organism: SARS-CoV1
[14] = target: HLA-A*11:01; assay: as above; details: source organism: SARS-CoV1
[15] = target: HLA-A*31:01; assay: IEDB peptide-MHC binding, purified MHC/competitive/radioactivity; filed as Kd, often an IC50 or EC50 that approximates it; ≥ and ≤ were set here for values at or beyond the usual limits of such assays; details: source organism: Vaccinia virus WR
[16] = target: HLA-A*03:01; assay: as above; details: source organism: Vaccinia virus WR
[17] = target: HLA-A*68:01; assay: as above; details: source organism: Vaccinia virus WR
[18] = target: HLA-A*33:01; assay: as above; details: source organism: Vaccinia virus WR
[19] = target: HLA-A*11:01; assay: as above; details: source organism: Vaccinia virus WR
[20] = source organism: SARS coronavirus Tor2
[21] = source organism: Mammarenavirus whitewaterense
[22] = source organism: Vaccinia virus WR
[23] = source organism: Dengue virus 2 Jamaica/1409/1983
[24] = source organism: Mammarenavirus lassaense
[25] = source organism: Mammarenavirus machupoense
[26] = source organism: Dengue virus 1 Brazil/97-11/1997
[27] = source organism: Vaccinia virus Copenhagen
[28] = source organism: Dengue virus 4 Philippines/H241/1956

Sequence: LSFKELLVY
- Kd [1, 20]: 85.3 nM
- Kd [2, 20]: 1.55 nM
- Kd [3, 20]: 9230 nM
- Kd [4, 20]: 50.8 nM
- Kd [5, 20]: 2490 nM
- Kd [6, 20]: 10900 nM

Sequence: FYVSSIFLHL
- Kd [2, 21]: 10.9 nM
- Kd [3, 21]: 114 nM
- Kd [5, 21]: 8.55 nM

Sequence: WFITQRNFF
- Kd [1, 20]: 1090 nM
- Kd [2, 20]: 13.6 nM
- Kd [3, 20]: ≥ 32500 nM
- Kd [4, 20]: 137 nM
- Kd [5, 20]: 2730 nM
- Kd [6, 20]: 172 nM

Sequence: AEDMLNPNY
- Kd [1, 20]: ≥ 87700 nM
- Kd [2, 20]: 3800 nM
- Kd [3, 20]: ≥ 77600 nM
- Kd [4, 20]: 12900 nM
- Kd [5, 20]: ≥ 77800 nM
- Kd [6, 20]: ≥ 86900 nM
- Kd [7]: 4390 nM

Sequence: KSLKKVYTF
- Kd [8, 22]: 0.485 nM

Sequence: VDNVHTWTEQ
- Kd ([8]; source organism: Dengue virus 4 Dominica/814669/1981): ≥ 34100 nM

Sequence: SGCVVSWKNK
- Kd [8, 23]: 9640 nM

Sequence: PTITQMNLKY
- Kd [1, 20]: 89.6 nM
- Kd [2, 20]: 48.4 nM
- Kd [3, 20]: ≥ 70300 nM
- Kd [4, 20]: 1120 nM
- Kd [5, 20]: ≥ 70000 nM
- Kd [6, 20]: 827 nM

Sequence: ITFQSILGY
- Kd [9]: 57.3 nM
- Kd [10]: 70.7 nM

Sequence: TYVPSQERNF
- Kd [1, 20]: ≥ 70400 nM
- Kd [2, 20]: 1310 nM
- Kd [3, 20]: 72.3 nM
- Kd [4, 20]: 14100 nM
- Kd [5, 20]: 39.2 nM
- Kd [6, 20]: ≥ 69700 nM

Sequence: ESDSKPQKV
- Kd [1, 24]: 180 nM
- Kd [2, 24]: ≥ 78900 nM
- Kd [3, 24]: ≥ 77500 nM
- Kd [4, 24]: ≥ 76900 nM
- Kd [5, 24]: ≥ 77700 nM
- Kd [6, 24]: ≥ 77900 nM

Sequence: AFNCTFEYI
- Kd [1, 20]: 1400 nM
- Kd [2, 20]: 322 nM
- Kd [3, 20]: ≥ 70300 nM
- Kd [4, 20]: 1400 nM
- Kd [5, 20]: 9360 nM
- Kd [6, 20]: 86.1 nM

Sequence: FAGKTVWFVP
- Kd ([8]; source organism: Dengue virus 3 Martinique/1243/1999): ≥ 26600 nM

Sequence: EMICFHEFL
- Kd [2, 25]: 11300 nM
- Kd [3, 25]: ≥ 40900 nM
- Kd [5, 25]: 6960 nM

Sequence: EENMDVEIW
- Kd [11, 26]: 82.8 nM
- Kd [12, 26]: 123 nM

Sequence: PEDPIEVALY
- Kd [1, 24]: ≥ 70400 nM
- Kd [2, 24]: 10100 nM
- Kd [3, 24]: ≥ 70300 nM
- Kd [4, 24]: 1220 nM
- Kd [5, 24]: ≥ 70000 nM
- Kd [6, 24]: ≥ 69700 nM

Sequence: LQSLENVAY
- Kd [1, 20]: ≥ 42300 nM
- Kd [2, 20]: 6670 nM
- Kd [3, 20]: ≥ 77600 nM
- Kd [4, 20]: 617 nM
- Kd [5, 20]: ≥ 77800 nM
- Kd [6, 20]: ≥ 81500 nM
- Kd [13]: 161 nM
- Kd [14]: ≥ 44700 nM

Sequence: TAEDMLNPNY
- Kd [1, 20]: 1040 nM
- Kd [2, 20]: 5500 nM
- Kd [3, 20]: ≥ 70300 nM
- Kd [4, 20]: 1070 nM
- Kd [5, 20]: ≥ 70000 nM
- Kd [6, 20]: 17600 nM

Sequence: GEVGAIALDF
- Kd [11, 26]: 21.5 nM
- Kd [12, 26]: 23.5 nM

Sequence: AMFTAALNI
- Kd [8, 22]: 123 nM

Sequence: NEMGLLETT
- Kd [12, 26]: 8030 nM

Sequence: SIIFINYTM
- Kd [8, 27]: 6.51 nM

Sequence: AYLRKHFSM
- Kd [1, 20]: ≥ 78100 nM
- Kd [2, 20]: 6290 nM
- Kd [3, 20]: ≥ 83300 nM
- Kd [4, 20]: ≥ 75000 nM
- Kd [5, 20]: ≥ 24400 nM
- Kd [6, 20]: ≥ 77900 nM

Sequence: GYKNVRITF
- Kd [1, 20]: ≥ 78100 nM
- Kd [2, 20]: 3700 nM
- Kd [3, 20]: 6990 nM
- Kd [4, 20]: ≥ 23100 nM
- Kd [5, 20]: 11000 nM
- Kd [6, 20]: ≥ 54100 nM

Sequence: TDNVHTWTEQ
- Kd [8, 23]: ≥ 37600 nM

Sequence: LLMYNLLTI
- Kd [8, 27]: 71.7 nM

Sequence: KAADVTWEEE
- Kd ([8]; source organism: Dengue virus 3 Singapore/8120/1995): ≥ 33100 nM

Sequence: LTGYGTVTM
- Kd [8, 23]: 15400 nM

Sequence: TEIASLPTY
- Kd [11, 28]: 13 nM
- Kd [12, 28]: 18.5 nM

Sequence: PITAAAWYLW
- Kd [8, 23]: 1680 nM

Sequence: AETWMSSEG
- Kd [11, 28]: 425 nM

Sequence: DLIKKSDAKR
- Kd [15]: 3.96 nM
- Kd [2, 22]: 28.7 nM
- Kd [16]: 6370 nM
- Kd [17]: 13.9 nM
- Kd [18]: 8.97 nM
- Kd [19]: 12500 nM

Sequence: TGCAVSWSGK
- Kd [8, 28]: 8440 nM

Sequence: GTHYQNHGF
- Kd [8, 22]: 6.02 nM
